T1: human amylin receptor (amylin 3(a) receptor: human calcitonin receptor with RAMP-3) (human, UniProt P30988 25-474; O60896 24-148)
T1 construct: whole, on cells; also called hAmylin-R; hAmylinR
T1 sequence (looked up) 1: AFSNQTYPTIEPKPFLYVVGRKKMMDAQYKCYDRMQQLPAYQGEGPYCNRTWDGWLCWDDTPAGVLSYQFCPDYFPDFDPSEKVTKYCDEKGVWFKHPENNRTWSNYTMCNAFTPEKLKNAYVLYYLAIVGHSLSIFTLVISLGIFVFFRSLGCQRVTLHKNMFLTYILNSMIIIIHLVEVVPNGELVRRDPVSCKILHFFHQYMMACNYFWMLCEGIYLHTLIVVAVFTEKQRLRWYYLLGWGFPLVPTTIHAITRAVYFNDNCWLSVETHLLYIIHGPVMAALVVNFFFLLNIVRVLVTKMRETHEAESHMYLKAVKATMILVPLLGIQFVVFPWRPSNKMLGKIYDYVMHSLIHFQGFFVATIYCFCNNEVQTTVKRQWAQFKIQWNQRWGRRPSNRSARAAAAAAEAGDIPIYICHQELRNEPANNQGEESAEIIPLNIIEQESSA
T1 sequence (looked up) 2: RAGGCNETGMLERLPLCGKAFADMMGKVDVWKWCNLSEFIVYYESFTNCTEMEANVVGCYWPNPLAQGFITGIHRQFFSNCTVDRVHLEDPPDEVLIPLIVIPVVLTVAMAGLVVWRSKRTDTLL

B1: N^α1-[(4S)-4-carboxy-4-(19-carboxynonadecanoylamino)butanoyl]-[Arg17,Pro21,Pro27,His34]-h-amylin (peptide)
peptide: KCNTATCATQRLANFLRHSSPNFGAIPSSTNVGHNTY
modifications: C20 diacid-gGlu on alpha amino group of N-terminal Lys 1; Cys2-Cys7 disulfide; C-terminal amide
notes: also called 40; compound 40
B2: N^α1-[(4S)-4-carboxy-4-(19-carboxynonadecanoylamino)butanoyl]-[Glu14,Arg17,Pro21,Pro25,Pro28,Pro29,Pro37]-h-amylin (peptide)
peptide: {C20 diacid-γGlu}-KCNTATCATQRLAEFLRHSSPNFGPILPPTNVGSNTP-NH2
modifications: disulfide 2-7
SMILES: CC[C@H](C)[C@H](NC(=O)[C@@H]1CCCN1C(=O)CNC(=O)[C@H](Cc1ccccc1)NC(=O)[C@H](CC(N)=O)NC(=O)[C@@H]1CCCN1C(=O)[C@H](CO)NC(=O)[C@H](CO)NC(=O)[C@H](Cc1c[nH]cn1)NC(=O)[C@H](CCCNC(=N)N)NC(=O)[C@H](CC(C)C)NC(=O)[C@H](Cc1ccccc1)NC(=O)[C@H](CCC(=O)O)NC(=O)[C@H](C)NC(=O)[C@H](CC(C)C)NC(=O)[C@H](CCCNC(=N)N)NC(=O)[C@H](CCC(N)=O)NC(=O)[C@@H](NC(=O)[C@H](C)NC(=O)[C@@H]1CSSC[C@H](NC(=O)[C@H](CCCCN)NC(=O)CC[C@H](NC(=O)CCCCCCCCCCCCCCCCCCC(=O)O)C(=O)O)C(=O)N[C@@H](CC(N)=O)C(=O)N[C@@H]([C@@H](C)O)C(=O)N[C@@H](C)C(=O)N[C@@H]([C@@H](C)O)C(=O)N1)[C@@H](C)O)C(=O)N[C@@H](CC(C)C)C(=O)N1CCC[C@H]1C(=O)N1CCC[C@H]1C(=O)N[C@H](C(=O)N[C@@H](CC(N)=O)C(=O)N[C@H](C(=O)NCC(=O)N[C@@H](CO)C(=O)N[C@@H](CC(N)=O)C(=O)N[C@H](C(=O)N1CCC[C@H]1C(N)=O)[C@@H](C)O)C(C)C)[C@@H](C)O
notes: also called compound 4
B3: N^α1-[(4S)-4-carboxy-4-(19-carboxynonadecanoylamino)butanoyl]-[Glu14,Arg17,Pro21,Pro25,Pro28,Pro29]-h-amylin (peptide)
peptide: {C20 diacid-γGlu}-KCNTATCATQRLAEFLRHSSPNFGPILPPTNVGSNTY-NH2
modifications: disulfide 2-7
SMILES: CC[C@H](C)[C@H](NC(=O)[C@@H]1CCCN1C(=O)CNC(=O)[C@H](Cc1ccccc1)NC(=O)[C@H](CC(N)=O)NC(=O)[C@@H]1CCCN1C(=O)[C@H](CO)NC(=O)[C@H](CO)NC(=O)[C@H](Cc1c[nH]cn1)NC(=O)[C@H](CCCNC(=N)N)NC(=O)[C@H](CC(C)C)NC(=O)[C@H](Cc1ccccc1)NC(=O)[C@H](CCC(=O)O)NC(=O)[C@H](C)NC(=O)[C@H](CC(C)C)NC(=O)[C@H](CCCNC(=N)N)NC(=O)[C@H](CCC(N)=O)NC(=O)[C@@H](NC(=O)[C@H](C)NC(=O)[C@@H]1CSSC[C@H](NC(=O)[C@H](CCCCN)NC(=O)CC[C@H](NC(=O)CCCCCCCCCCCCCCCCCCC(=O)O)C(=O)O)C(=O)N[C@@H](CC(N)=O)C(=O)N[C@@H]([C@@H](C)O)C(=O)N[C@@H](C)C(=O)N[C@@H]([C@@H](C)O)C(=O)N1)[C@@H](C)O)C(=O)N[C@@H](CC(C)C)C(=O)N1CCC[C@H]1C(=O)N1CCC[C@H]1C(=O)N[C@H](C(=O)N[C@@H](CC(N)=O)C(=O)N[C@H](C(=O)NCC(=O)N[C@@H](CO)C(=O)N[C@@H](CC(N)=O)C(=O)N[C@H](C(=O)N[C@@H](Cc1ccc(O)cc1)C(N)=O)[C@@H](C)O)C(C)C)[C@@H](C)O
notes: also called compound 6
B4: N^α1-[(4S)-4-carboxy-4-(19-carboxynonadecanoylamino)butanoyl]-[Asp14,Arg17,Pro21,Pro27,Pro37]-h-amylin (peptide)
peptide: {C20 diacid-γGlu}-KCNTATCATQRLADFLRHSSPNFGAIPSSTNVGSNTP-NH2
modifications: disulfide 2-7
SMILES: CC[C@H](C)[C@H](NC(=O)[C@H](C)NC(=O)CNC(=O)[C@H](Cc1ccccc1)NC(=O)[C@H](CC(N)=O)NC(=O)[C@@H]1CCCN1C(=O)[C@H](CO)NC(=O)[C@H](CO)NC(=O)[C@H](Cc1c[nH]cn1)NC(=O)[C@H](CCCNC(=N)N)NC(=O)[C@H](CC(C)C)NC(=O)[C@H](Cc1ccccc1)NC(=O)[C@H](CC(=O)O)NC(=O)[C@H](C)NC(=O)[C@H](CC(C)C)NC(=O)[C@H](CCCNC(=N)N)NC(=O)[C@H](CCC(N)=O)NC(=O)[C@@H](NC(=O)[C@H](C)NC(=O)[C@@H]1CSSC[C@H](NC(=O)[C@H](CCCCN)NC(=O)CC[C@H](NC(=O)CCCCCCCCCCCCCCCCCCC(=O)O)C(=O)O)C(=O)N[C@@H](CC(N)=O)C(=O)N[C@@H]([C@@H](C)O)C(=O)N[C@@H](C)C(=O)N[C@@H]([C@@H](C)O)C(=O)N1)[C@@H](C)O)C(=O)N1CCC[C@H]1C(=O)N[C@@H](CO)C(=O)N[C@@H](CO)C(=O)N[C@H](C(=O)N[C@@H](CC(N)=O)C(=O)N[C@H](C(=O)NCC(=O)N[C@@H](CO)C(=O)N[C@@H](CC(N)=O)C(=O)N[C@H](C(=O)N1CCC[C@H]1C(N)=O)[C@@H](C)O)C(C)C)[C@@H](C)O
notes: also called 10; compound 10
B5: N^α1-[(4S)-4-carboxy-4-(19-carboxynonadecanoylamino)butanoyl]-[Arg17,Pro21,Pro27,Pro31,Glu35]-h-amylin (peptide)
peptide: {C20 diacid-γGlu}-KCNTATCATQRLANFLRHSSPNFGAIPSSTPVGSETY-NH2
modifications: disulfide 2-7
SMILES: CC[C@H](C)[C@H](NC(=O)[C@H](C)NC(=O)CNC(=O)[C@H](Cc1ccccc1)NC(=O)[C@H](CC(N)=O)NC(=O)[C@@H]1CCCN1C(=O)[C@H](CO)NC(=O)[C@H](CO)NC(=O)[C@H](Cc1c[nH]cn1)NC(=O)[C@H](CCCNC(=N)N)NC(=O)[C@H](CC(C)C)NC(=O)[C@H](Cc1ccccc1)NC(=O)[C@H](CC(N)=O)NC(=O)[C@H](C)NC(=O)[C@H](CC(C)C)NC(=O)[C@H](CCCNC(=N)N)NC(=O)[C@H](CCC(N)=O)NC(=O)[C@@H](NC(=O)[C@H](C)NC(=O)[C@@H]1CSSC[C@H](NC(=O)[C@H](CCCCN)NC(=O)CC[C@H](NC(=O)CCCCCCCCCCCCCCCCCCC(=O)O)C(=O)O)C(=O)N[C@@H](CC(N)=O)C(=O)N[C@@H]([C@@H](C)O)C(=O)N[C@@H](C)C(=O)N[C@@H]([C@@H](C)O)C(=O)N1)[C@@H](C)O)C(=O)N1CCC[C@H]1C(=O)N[C@@H](CO)C(=O)N[C@@H](CO)C(=O)N[C@H](C(=O)N1CCC[C@H]1C(=O)N[C@H](C(=O)NCC(=O)N[C@@H](CO)C(=O)N[C@@H](CCC(=O)O)C(=O)N[C@H](C(=O)N[C@@H](Cc1ccc(O)cc1)C(N)=O)[C@@H](C)O)C(C)C)[C@@H](C)O
notes: also called 28; compound 28
B6: N^α1-[(4S)-4-carboxy-4-(19-carboxynonadecanoylamino)butanoyl]-[Glu14,Arg17,Pro21,Pro26,Pro37]-h-amylin (peptide)
peptide: {C20 diacid-γGlu}-KCNTATCATQRLAEFLRHSSPNFGAPLSSTNVGSNTP-NH2
modifications: disulfide 2-7
SMILES: CC(C)C[C@H](NC(=O)[C@H](CCCNC(=N)N)NC(=O)[C@H](CCC(N)=O)NC(=O)[C@@H](NC(=O)[C@H](C)NC(=O)[C@@H]1CSSC[C@H](NC(=O)[C@H](CCCCN)NC(=O)CC[C@H](NC(=O)CCCCCCCCCCCCCCCCCCC(=O)O)C(=O)O)C(=O)N[C@@H](CC(N)=O)C(=O)N[C@@H]([C@@H](C)O)C(=O)N[C@@H](C)C(=O)N[C@@H]([C@@H](C)O)C(=O)N1)[C@@H](C)O)C(=O)N[C@@H](C)C(=O)N[C@@H](CCC(=O)O)C(=O)N[C@@H](Cc1ccccc1)C(=O)N[C@@H](CC(C)C)C(=O)N[C@@H](CCCNC(=N)N)C(=O)N[C@@H](Cc1c[nH]cn1)C(=O)N[C@@H](CO)C(=O)N[C@@H](CO)C(=O)N1CCC[C@H]1C(=O)N[C@@H](CC(N)=O)C(=O)N[C@@H](Cc1ccccc1)C(=O)NCC(=O)N[C@@H](C)C(=O)N1CCC[C@H]1C(=O)N[C@@H](CC(C)C)C(=O)N[C@@H](CO)C(=O)N[C@@H](CO)C(=O)N[C@H](C(=O)N[C@@H](CC(N)=O)C(=O)N[C@H](C(=O)NCC(=O)N[C@@H](CO)C(=O)N[C@@H](CC(N)=O)C(=O)N[C@H](C(=O)N1CCC[C@H]1C(N)=O)[C@@H](C)O)C(C)C)[C@@H](C)O
notes: also called compound 5

Numbered stars: 1 amine (or outer) side, 2 acyl side, 3 side chain; on linkers, the order of the positions; unused ones are H or OH. Bridge positions count the residues as written; N and C are the ends. * marks the point of attachment. C20 diacid = O=C(O)CCCCCCCCCCCCCCCCCCC(=O)*; γGlu = O=C(O)[C@H](CCC(=O)[*:2])N[*:1]

The target of this test is T1, human amylin receptor (amylin 3(a) …). The test is described as follows: SPA displacement of 125I-rat amylin, hAmylin 3(a) receptor membranes. As for the experimental part: The binding assay was performed using scintillation proximity assay (SPA) beads (RPNQ0001) from PerkinElmer and cell membranes from the Amylin 3(a)/CRE-luc cells (as described in Assay (II)) were used. Membranes were prepared in the following way; the cells were rinsed with PBS and incubated with Versene for approximately 5 min before harvesting. The cells were flushed with PBS and the cell-suspension was centrifuged for 5 min at 1000 rpm. Cells were homogenized (ultrathurrax) in a buffer containing 20 mM Na-HEPES and 10 mM EDTA (pH 7.4) and centrifuged at 20.000 rpm for 15 min. The resulting pellet was resuspended, homogenized and centrifuged (20.000 rpm, 15 min) in a buffer containing 20 mM Na-HEPES and 0.1 mM EDTA (pH 7.4, buffer 2). The resulting pellet was resuspended in buffer 2 and protein concentration was measured (BCA protein Assay, Pierce). The homogenate was kept cold during the whole procedure. The membranes were kept at −80° C. until use. The assay was performed in a 384 well Optiplate (PerkinElmer) in a total volume of 40 ul. Membranes were mixed with SPA beads. Final concentration of membranes 35 ng/μL final and SPA beads was 0.05 mg/well. Test-compounds were dissolved in DMSO and further diluted in assay buffer (50 mM Hepes, pH 7.4, 1 mM CaCl2, 5 mM MgCl₂, 0.1% OA and 0.02% Tween20). […] The final mixture was incubated with shaking at 400 rpm for 120 min at 25° C. prior to centrifugation (1500 rpm, 10 min). Samples were analyzed on TopCounter™ (Packard). The IC₅₀ was calculated using (one site binding competition analysis) GraphPad Prism5 as a measure of receptor affinity.
B1: the IC50 (as a rule, the concentration that inhibits the measured activity by half) was determined as 0.549 nM.
In the case of B2 it was 0.321 nM.
Take B3: the IC50 was 0.996 nM.
In the case of B4 it was 0.082 nM.
As to B5, the IC50 came out at 0.61 nM.
B6: the IC50 was 0.374 nM.

For the origin of these results see patent US20140087995A1 (published 2014).
